Non-standard residues stand in square brackets, D forms with d. No end group written: not given here. pY = N[C@@H](Cc1ccc(OP(=O)(O)O)cc1)C(=O)O
How the values were obtained:
[1] = tested on: OGT I734R; assay: Saturation FP binding assay, OGT mutant I734R; parameters: species or system Human; conditions: 5-FAM-SMG9 0.4 μM stock mixed 1:1, TBS pH 8.0, n=3
Description: (§1) To confirm the SMG9 peptide binding mode in our crystal structure, we mutated each of the two primary binding features: the hydrophobic pocket (F723, I734, and I787) and the bidentate donor N791, and measured their changes in binding affinity for SMG9 peptide. Each of the hydrophobic OGT residues were mutated to a glutamate or arginine, while the asparagine bidentate interaction was disrupted by mutation to alanine. Each mutated OGT construct was recombinantly expressed in E coli and purified at high concentration for FP saturation binding assays with fluorescent SMG9 peptide. Insertion of charged residues into the hydrophobic pocket (F723E, I734R, I787E, and I787R) as well as disruption of the bidentate backbone interaction (N791 A) each shifted EC50 values by >10-fold (Fig. 2d, Extended data Fig. 3a), showing that these mutations substantially disrupt SMG9 peptide binding.
(§2) All FP measurements were carried out in black small volume 384-well plates (Greiner Bio-One). For saturation binding assays, 2-fold serial dilutions of recombinantly purified OGT were prepared in TBS (150 mM NaCl, 20 mM Tris-HCl, pH 8.0). 5-FAM-SMG9 fluorescent peptide at 0.4 μM in TBS was added in equal volume to the OGT dilution series. […] After 20 min incubation in the dark at room temperature, FP was read on a BMG PheraStar multimode plate reader equipt with 488, 520, 520 FP filter cube (BMG Labtech).

[2] = tested on: OGT I787R; assay: Saturation FP binding assay, OGT mutant I787R; parameters: species or system Human; conditions: 5-FAM-SMG9 0.4 μM stock mixed 1:1, TBS pH 8.0, n=3
Description: as §1, §2

[3] = tested on: OGT I787E; assay: Saturation FP binding assay, OGT mutant I787E; parameters: species or system Human; conditions: 5-FAM-SMG9 0.4 μM stock mixed 1:1, TBS pH 8.0, n=3
Description: as §1, §2

[4] = tested on: OGT N791A; assay: Saturation FP binding assay, OGT mutant N791A; parameters: species or system Human; conditions: 5-FAM-SMG9 0.4 μM stock mixed 1:1, TBS pH 8.0, n=3
Description: as §1, §2

[5] = tested on: OGT F723E; assay: Saturation FP binding assay, OGT mutant F723E; parameters: species or system Human; conditions: 5-FAM-SMG9 0.4 μM stock mixed 1:1, TBS pH 8.0, n=3
Description: as §1, §2

[6] = target: fluorescently labeled 5-FAM-SMG9 peptide (human) (UniProt Q9H0W8); assay: fluorescence polarisation; saturation: 2-fold serial dilutions of OGT (WT or mutant) plus equal volume of 0.4 uM 5-FAM-SMG9; TBS (150 mM NaCl, 20 mM Tris-HCl, pH 8.0); 20 min, room temperature
[7] = target: T1, OGT (Homo sapiens, UniProt O15294); assay: Competitive fluorescence polarization (FP) binding assay with 5-FAM-SMG9 peptide; conditions: FP competition with 5-FAM-SMG9 for OGT binding, TBS pH 8.0, n=3
T1 construct: two OGT constructs, full-length OGT (OGT) and the protein crystallization construct OGT4.5; His6 (N); made in house; host or cells: E. coli BL21(DE3)
T1 sequence (O15294 1-1046): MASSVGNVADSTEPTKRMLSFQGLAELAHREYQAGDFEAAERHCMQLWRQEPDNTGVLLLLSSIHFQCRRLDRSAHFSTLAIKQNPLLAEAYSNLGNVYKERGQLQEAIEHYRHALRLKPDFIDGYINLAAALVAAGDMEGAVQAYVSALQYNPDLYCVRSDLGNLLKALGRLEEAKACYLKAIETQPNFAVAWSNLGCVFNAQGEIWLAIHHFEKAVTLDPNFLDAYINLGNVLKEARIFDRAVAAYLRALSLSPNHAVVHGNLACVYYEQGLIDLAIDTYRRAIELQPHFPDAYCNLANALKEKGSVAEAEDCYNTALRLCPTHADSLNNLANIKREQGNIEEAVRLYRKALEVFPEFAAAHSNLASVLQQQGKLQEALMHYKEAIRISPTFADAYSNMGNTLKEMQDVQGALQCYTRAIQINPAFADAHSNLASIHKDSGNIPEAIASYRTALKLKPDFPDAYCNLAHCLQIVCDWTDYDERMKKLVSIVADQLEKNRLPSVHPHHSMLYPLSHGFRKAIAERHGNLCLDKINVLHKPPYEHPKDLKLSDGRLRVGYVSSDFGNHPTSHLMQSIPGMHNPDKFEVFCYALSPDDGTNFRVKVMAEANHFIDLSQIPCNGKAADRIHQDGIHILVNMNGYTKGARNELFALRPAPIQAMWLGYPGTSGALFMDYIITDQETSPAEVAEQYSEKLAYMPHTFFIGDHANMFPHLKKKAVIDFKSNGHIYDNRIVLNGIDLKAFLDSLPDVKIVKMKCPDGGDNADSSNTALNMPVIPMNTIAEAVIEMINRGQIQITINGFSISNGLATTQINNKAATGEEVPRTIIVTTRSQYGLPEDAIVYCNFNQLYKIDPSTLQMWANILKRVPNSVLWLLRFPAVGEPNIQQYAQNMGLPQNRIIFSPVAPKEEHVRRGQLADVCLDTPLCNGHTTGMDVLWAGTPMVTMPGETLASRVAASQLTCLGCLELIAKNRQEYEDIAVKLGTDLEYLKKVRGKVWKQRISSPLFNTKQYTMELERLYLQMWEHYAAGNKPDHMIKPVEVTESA
Description: All FP measurements were carried out in black small volume 384-well plates (Greiner Bio-One). For saturation binding assays, 2-fold serial dilutions of recombinantly purified OGT were prepared in TBS (150 mM NaCl, 20 mM Tris-HCl, pH 8.0). 5-FAM-SMG9 fluorescent peptide at 0.4 μM in TBS was added in equal volume to the OGT dilution series. For competition binding assays, 2-fold serial dilutions of unlabeled peptide were prepared in TBS. An equal volume of 20 μM OGT with 0.4 μM 5-FAM-SMG9 in TBS was added to the dilution series. After 20 min incubation in the dark at room temperature, FP was read on a BMG PheraStar multimode plate reader equipt with 488, 520, 520 FP filter cube (BMG Labtech).

[8] = target: T2, full-length O-GlcNAc transferase (OGT), recombinant (human, UniProt O15294-3 1-1036); assay: MST
T2 chain: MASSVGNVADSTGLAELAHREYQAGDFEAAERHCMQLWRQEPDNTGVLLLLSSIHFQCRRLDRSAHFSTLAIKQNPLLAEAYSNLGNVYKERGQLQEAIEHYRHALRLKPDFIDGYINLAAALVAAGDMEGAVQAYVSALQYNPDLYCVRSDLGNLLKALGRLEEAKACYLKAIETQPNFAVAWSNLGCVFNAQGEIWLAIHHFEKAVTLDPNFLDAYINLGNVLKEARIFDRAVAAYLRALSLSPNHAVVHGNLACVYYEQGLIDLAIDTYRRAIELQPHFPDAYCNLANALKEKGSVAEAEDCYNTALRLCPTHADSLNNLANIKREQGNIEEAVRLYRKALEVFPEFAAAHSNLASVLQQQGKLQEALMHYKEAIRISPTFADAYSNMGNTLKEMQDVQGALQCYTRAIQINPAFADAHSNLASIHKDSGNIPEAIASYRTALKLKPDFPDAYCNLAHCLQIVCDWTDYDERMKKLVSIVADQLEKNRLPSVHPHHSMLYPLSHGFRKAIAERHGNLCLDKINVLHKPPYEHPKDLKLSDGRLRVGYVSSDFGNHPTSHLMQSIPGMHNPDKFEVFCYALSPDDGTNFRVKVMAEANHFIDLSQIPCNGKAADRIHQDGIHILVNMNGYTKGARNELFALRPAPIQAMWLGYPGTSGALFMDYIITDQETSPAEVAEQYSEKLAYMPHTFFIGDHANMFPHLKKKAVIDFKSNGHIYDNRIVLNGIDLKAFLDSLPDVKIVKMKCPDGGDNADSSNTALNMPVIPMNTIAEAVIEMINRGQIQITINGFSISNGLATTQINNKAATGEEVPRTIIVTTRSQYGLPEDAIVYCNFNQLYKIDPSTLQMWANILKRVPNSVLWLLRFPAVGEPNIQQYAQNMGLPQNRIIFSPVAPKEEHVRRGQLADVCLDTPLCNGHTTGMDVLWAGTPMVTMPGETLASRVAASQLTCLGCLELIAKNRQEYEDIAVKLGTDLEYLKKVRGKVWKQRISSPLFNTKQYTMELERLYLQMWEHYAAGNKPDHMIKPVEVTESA

Molecule: 5-FAM-SMG9 peptide: fluorescently labeled 5-FAM SMG9 peptide, probe for MST and FP assays (QRPTQPVYQIQNRGMG; not fully specified (N-terminus); also: 5-FAM label, position not given here)
- fold shift in EC50 relative to wild-type OGT [1]: > 10 fold
- fold shift in EC50 relative to wild-type OGT [2]: > 10 fold
- fold shift in EC50 relative to wild-type OGT [3]: > 10 fold
- fold shift in EC50 relative to wild-type OGT [4]: > 10 fold
- fold shift in EC50 relative to wild-type OGT [5]: > 10 fold

Molecule: OGT F723E, recombinant (enzyme)
- fold shift in EC50 against wild-type OGT [6]: > 10 fold

Molecule: OGT I734R, recombinant (enzyme)
- fold shift in EC50 against wild-type OGT [6]: > 10 fold

Molecule: OGT I787E, recombinant (from UniProt O15294-3 1-1036) (enzyme)
- fold shift in EC50 against wild-type OGT [6]: > 10 fold

Molecule: OGT I787R, recombinant (from UniProt O15294-3 1-1036) (enzyme)
- fold shift in EC50 against wild-type OGT [6]: > 10 fold

Molecule: OGT N791A, recombinant (enzyme)
- fold shift in EC50 against wild-type OGT [6]: > 10 fold

Molecule: SMG9 Y147F: SMG9 peptide with Y147F mutation (QRPTQPVFQIQNRGMG)
- fold shift in EC50 relative to WT SMG9 peptide [7]: > 10 fold

Molecule: SMG9 pY147: phosphorylated SMG9 peptide (pY147) (QRPTQPV[pY]QIQNRGMG)
- peptide binding to OGT (FP competition) [7]: significantly disrupted peptide binding

B1: fluorescently labeled 5-FAM-SMG9 peptide (peptide, UniProt Q9H0W8 140-155, looked up)
peptide: QRPTQPVYQIQNRGMG
modifications: not fully specified (N-terminus); also: 5-FAM label, position not given here
notes: SMG9, human, 16-mer peptide with the PxYx[I/L] motif, residues 140-155 as stated for the SMG9 peptide; The limits 140-155 are printed for the SMG9 peptide of the crystal; the labelled peptide bears the same name; also called fluorescent SMG9 peptide; source: synthetic peptide (solid phase peptide synthesis, Ontores)
- Kd [8]: 13.1 µM

Reference: PMC9915769, “A novel binding site on the cryptic intervening domain is a motif-dependent regulator of O-GlcNAc transferase” (Research Square, 2023)
